Key:
[1] = target: FITC-conjugated tau peptide pS396/pS404; experiment: Fluorescence polarization direct binding, pS396/pS404 peptide; settings: restated in Discussion; fluorescence polarization, Fab C5.2
Protocol: (§1) FITC-labeled peptides used in fluorescence polarization experiments were synthesized by Biomatik (Cambridge, ON, Canada). Fab C5.2 affinity was determined using a fluorescence polarization-based direct binding assay with fluorescein isothiocyanate (FITC)-conjugated peptides (Table 1). The FITC-peptide concentration was kept constant at 300 nM while Fab C5.2 was serially diluted from 675 nM to 0.08 nM. Data was collected at 25 °C using excitation and emission wavelengths of 485 nm and 535 nm, respectively. Each experiment was done in a single 96-well plate and calculated in triplicate (buffer: 50 mM Tris, 100 mM NaCl, 0.1% pluronic F-127). The experiments were performed with a DTX 880 Multimode Detector (Beckman Coulter, Jersey City, NJ). Fluorescence data was reduced using multimode detection software and KD values were calculated in GraphPad Prism 7.0 using a nonlinear regression model.
(§2) To accurately measure the C5.2 binding affinity, we performed fluorescence polarization experiments to determine dissociation constants (KD), using the Fab C5.2 and four differentially phosphorylated FITC-conjugated peptides (Table 1). The peptide concentration was kept constant while that of Fab C5.2 was serially diluted from 675 nM to 0.08 nM (Fig. 1d). […] In comparison with a […] IgG molecule, each Fab fragment contains a single binding site so the KD was calculated using a nonlinear model.

[2] = tested on: FITC-conjugated tau peptide pS396; experiment: Fluorescence polarization direct binding, pS396 peptide
Protocol: as §1, §2

pS396 peptide = experiment: ELISA, pS396 peptide; format: binding
Protocol: Immulon 4 HBX (extra high-binding) 96-well microtiter plates (Thermo Scientific) were coated with the same peptide used for crystallization diluted to 2 μg/mL in phosphate-buffered saline (PBS) and left overnight at 4 °C (Table 1). Plates were then washed three times in PBS-T (PBS containing 0.05% Tween-20) and blocked in 5% non-fat milk and 3% bovine serum albumin in PBS for 2 hours at room temperature. Plates were subsequently washed 3 times in PBS-T before C5.2 was serially diluted (8 μg/mL–0.05 ng/mL) in PBS and incubated for 1 hour at room temperature. Then, alkaline phosphatase-conjugated goat anti-mouse IgG (Southern Biotech) was diluted 1:2000 in PBS and incubated for 30 minutes at room temperature. Finally, bound IgG was analyzed by addition of p-nitrophenyl phosphate substrate (Thermo Scientific) and measurement at 405 nm on a VersaMax Microplate Reader.
In order to evaluate the ability of C5.2 to exclusively target the phosphorylated epitope, we performed an enzyme-linked immunosorbent assay (ELISA). The peptides used in the assay are the same peptides used for crystallization and diluted to a concentration of 2 μg/mL (Table 1). Binding curves were generated from ELISA data by maintaining plate-bound peptide concentrations and serially diluting C5.2 IgG (Fig. 1c).

[3] = tested on: tau in Alzheimer's disease brain fractions; experiment: Western and dot blot, Alzheimer's disease brain; format: binding, human
Protocol: (§3) Mice were euthanized by cervical dislocation. Brains were quickly removed, weighed and divided sagittally down the midline to yield two hemispheres. One hemisphere was parted from the cerebellum and hindbrain, the forebrain containing cerebral cortex and hippocampus was snap-frozen on dry ice and stored at −80 °C until use for biochemical analysis. Frontal cortices from 4 AD donors (2 males and 2 females) and 4 non-demented healthy controls (HC, 2 males and 2 females) were obtained from Cambridge Bioscience (Cambridge, UK). The brain tissue samples were fresh-frozen and stored at −80 °C until used for biochemical analysis. All donors were of Caucasian race. Age of AD donors: 76–91 years. Age of the HC donors: 57–80 years. Post-mortem delays: 3–8 hours.
Brain tissue extraction was performed as described previously. Tissues were homogenized in 10 volumes of Tris-buffered saline containing protease and phosphatase inhibitors as follows: 50 mM Tris/HCl (pH 7.4); 274 mM NaCl; 5 mM KCl; 1% protease inhibitor mixture (Roche); 1% phosphatase inhibitor cocktail I & II (Sigma); and 1 mM phenylmethylsulfonyl fluoride (PMSF; Sigma). The homogenates were centrifuged at 27,000 × g for 20 min at 4 °C to obtain supernatant (S1) and pellet fractions. Pellets were re-homogenized in 5 volumes of high salt/sucrose buffer (0.8 M NaCl, 10% sucrose, 10 mM Tris/HCl, [pH 7.4], 1 mM EGTA, 1 mM PMSF) and centrifuged as above. The supernatants were collected and incubated with sarkosyl (1% final concentration; Sigma) for one hour at 37 °C, followed by centrifugation at 150,000 × g for one hour at 4 °C to obtain sarkosyl-insoluble pellets, referred to as P3. The P3 pellet was re-suspended in TE buffer (10 mM Tris/HCl [pH 8.0], 1 mM EDTA) to a volume equivalent to half of the original volume used for the brain homogenates. S1 and P3 fractions isolated from the individual 4 AD and 4 HC brains were pooled and used as AD pool and HC pool for western and dot blot analysis.
(§4) Samples were boiled in 1 × LDS loading buffer and 100 mM DTT. […] Tau and pTau levels were assessed in the samples using 1 μg/mL C5.2 overnight at 4 °C. A secondary fluorophore conjugated IgG antibody was used (IRDye 680 Goat anti-mouse, LICOR biosciences) and the signal was quantified using Odyssey CLx and Image studio software (LI-COR biosciences).
(§5) 1 μl sample of S1 and P3 isolated from 24 weeks old rTg4510 and non-transgenic littermate (non-tg) mice or from four pooled Alzheimer’s disease (AD) and healthy control (HC) brains was spotted on nitrocellulose membranes. […] Bound antibodies were detected using an enhanced chemiluminescence system (ECL PLUS kit; Perkin Elmer).

[4] = tested on: normal tau in the soluble tau fraction (S1) from healthy control subjects; experiment: Western and dot blot, healthy control brain; format: binding, human; settings: C5.2 1 µg/mL overnight 4 °C, pool of 4 healthy control donors
Protocol: as §3, with “Post-mortem delays: 3–8 hours.” left out
as §4, §5

B1: C5.2: novel mouse monoclonal antibody that targets the pS396 tau epitope region (antibody, V domains shown)
VH: QVQLQQSDAELVKPGASVKISCKASGYTFTDRTIHWVKQRPEQGLEWIGYIYPGDDSTKYNDMFKAKATLTADKSSNTAYMQLNSLTSDDSAVYFCARRGTMDYWGQGTSVTVSS
VL: DVQMIQSPSSLSASLGDIVTMTCQASQDTSINLNWFQQKPGKAPKLLIYGASNLEDGVPSRFSGSRYGTDFTLTISSLEDEDMATYFCLQHTYLPFTFGSGTKLEIK
[1]
  Kd: 15.4 nM
[2]; Discussion, ELISA and fluorescence polarization
  Phosphorylation state-specificity: phosphorylation state-specific with nanomolar affinity
[2]; both experiments (ELISA and fluorescence polarization)
  Phospho-specificity: phospho-specificity for pS396
[2]; restated in Discussion, fluorescence polarization, Fab C5.2
  Kd: 14.9 nM
pS396 peptide; ELISA, vs pS404 and non-phosphorylated peptides
  Phospho-specificity: pS396 phosphorylation state-specific mAb
pS396 peptide; plate coated with peptide 2 μg/mL, C5.2 IgG 8 μg/mL–0.05 ng/mL, 1 h room temperature, 405 nm
  Association with peptide (ELISA): strong association
[3]; C5.2 1 µg/mL overnight 4 °C, sarkosyl-insoluble P3, pool of 4 AD donors
  Binding to insoluble tau fraction (P3): binds predominantly to an insoluble tau fraction (P3)
[3]; C5.2 1 µg/mL overnight 4 °C, soluble S1, pool of 4 AD donors
  Reactivity to soluble tau fraction (S1): also has reactivity to a soluble tau fraction (S1)
[3]; overall statement from blots and immunohistochemistry (Fig. 1), AD and rTg4510 vs controls
  Specificity for pathological tau protein: specific for pathological tau protein
[3]; western blot, C5.2 1 µg/mL, pool of 4 AD donors
  Bands recognized in S1 and P3: recognizes similar bands in both fractions
[4]
  Detection of normal tau (S1): not detected
